Measured values: patent US20240294624A1, “ANTI-ERYTHROPOIETIN ANTIBODY” (ANDREMACON S.R.L., priority 2021, published 2024)

What was measured:
primary GSCs = assay: MTT cell viability assay; format: cell-based, human; conditions: 96 hours, anti-EPO (C4) 6 μg/ml, TMZ 100 μM, FTY720 100 nM
Description: A. Primary glioblastoma cancer stem cells (GCSc).

K562 = assay: MTT cell viability assay; format: cell-based, human; conditions: 96 hours, 6 μg/ml
Description: H. Myelogenous leukemia cell line (K562); chronic myeloid leukemia cells. Circulating […] levels are reliably higher in myelodysplastic syndromes than in healthy people, with a negative predictive role;

[1] = Hematological toxicity, blood count; format: in vivo; conditions: mice; IV 10 mg/Kg; 18 days
Description: Blood samples (100 μL) were collected into K3EDTA coated tubes, which were placed on a rotary mixer for at least 30 min, then analyzed for hematological analysis.
FIGS. 27 and 28 refer to blood count of mice treated intravenously (IV) for 18 days (T18) with anti-EPO at 10 mg/Kg. (A) RBC: red blood cells; (B) HGB: hemoglobin; (C) HCT: hematocrit; (D) MCV: mean corpuscular volume; (E) MCH: mean corpuscular hemoglobin; (F) MCHC: mean corpuscular hemoglobin concentration; (G) RDW: red cell distribution width; (H) RET: reticulocyte Count; (I) PLT: platelets. Data are means±SD (FIG. 27) and A) WBC: white blood cells; (B) NEUT: neutrophils; (C) LYMP: lymphocytes; (D) MONO: monocytes; (E) EOS: eosinophils; (F) BASO: basophils. Data are means±SD (FIG. 28).

[2] = Renal and liver toxicity, serum biochemistry; format: in vivo; conditions: mice; 11 and 18 days after treatment starting
Description: Serum for Biochemistry were collected at least 400 μL of blood and putted it in an eppendorf tube with or without (plasma/serum) anticoagulant. The samples were left at environment temperature for at least 30′ minutes, then centrifuged at 500 g for 10 min, the supernatants were collected, being careful not to take the precipitate and analyzed for Biochemical tests. […] (A) Urea; (B) Creatinine; (C) Albumine, (D) AST; aspartate aminotransferase; (E) ALT: alanine aminotransferase. (FIG. 29)

HOC84 = assay: MTT cell viability assay; format: cell-based, human; conditions: 96 hours, 6 μg/ml
Description: N. Human ovarian Cell (HOC) cultured in stem cell condition. In particular, HOC84 stem cells were obtained by digestion and cell isolation form a patient-derived xenograft (PDX) model from a high grade serous epithelial ovarian cancer, obtained by serial passages in nude mice.

SHSY-5Y = assay: MTT cell viability assay; format: cell-based, human; conditions: 96 hours, 6 μg/ml
Description: K. Neuroblastoma cell line (SHSY-5Y) line is a cell line isolated from a bone marrow biopsy taken from a patient with neuroblastoma. SHSY cells are often used as in vitro models of oncological pathology and neuronal differentiation.

primary GECs = assay: MTT cell viability assay; format: cell-based, human; conditions: 96 hours, anti-EPO (C4) 6 μg/ml, TMZ 100 μM, FTY720 100 nM
Description: B. Primary glioblastoma endothelial cells (GECs).

MCF-7 = assay: MTT cell viability assay; format: cell-based, human; conditions: 96 hours, 6 μg/ml
Description: G. Breast cancer cell line (MCF-7); breast cancer cells.

PC-3 = assay: MTT cell viability assay; format: cell-based, human; conditions: 96 hours, 6 μg/ml
Description: (§1) F. Prostate cancer cell lines (PC-3 and LNCAP); human prostate cancer cells used in cancer research and drug development. […] have been reported to be overexpressed and associated with poor prognosis and reduced survival in prostate cancer patients, and are considered predictive markers of aggressive prostate cancer behavior.

LNCAP = assay: MTT cell viability assay; format: cell-based, human; conditions: 96 hours, 6 μg/ml
Description: as §1

S-ECs = assay: Tube formation assay on Matrigel; format: cell-based, human; conditions: 48 h
Description: S-ECs (1×10^4) were plated on 10 μL of Matrigel in BM, as a Control Condition (CTR, FIG. 19A) or in media containing the anti-EPO (C4) (FIG. 19B), FTY720 (FIG. 19C), and anti-EPO (C4)+FTY720 (FIG. 19D) treatments, as reported above. S-ECs were incubated at 37° C., 5% C02, 5% 02. After 48 h, tube-like structure formation was evaluated by phase-contrast microscopy. […] Data are expressed as the mean±standard deviation of at least 3 experiments in triplicate. * P<0.05 versus CTR for treatments tested.

U373 cells = assay: MTT viability of chemo-resistant cells; format: cell-based; conditions: 96 h
[3] = system: primary anaplastic astrocytoma cells; assay: MTT cell viability assay; format: cell-based, human; conditions: 96 hours, anti-EPO (C4) 6 μg/ml, TMZ 100 μM, FTY720 100 nM
Description: D. Primary anaplastic astrocytoma cancer stem cells isolated from tumor biopsy of a cohort of patients affected by high grade glioma, in particular, anaplastic astrocytoma (WHO, grade III);

DLD1 = assay: MTT cell viability assay; format: cell-based, human; conditions: 96 hours, 6 μg/ml
Description: Cell viability was assessed by 3-(4,5-Dimethylthiazol-2-yl)-2,5-Diphenyl-tetrazoliumBromide (MTT) assay, as a function of redox potential (FIGS. 2-7). Cells (5×10^3/well) were seeded and cultured in 96-well plate for 24 h in Basal Medium (BM). Then, culture media were replaced with fresh media containing the specific treatments, or in BM as a control condition (CTR).
Test was performed in triplicate after 96 h of treatment, by replacing culture media with 100 μL of fresh media added with 10 μL of MTT 5 mg/ml in D-PBS. After 4 h of incubation, media were removed and cells were lysed with 100 μL of 2-propanol/formic acid (95:5, by vol) for 10 min. Then, absorbance was read at 570 nm in microplate reader.

B1: anti-EPO (C4): isolated anti-Erythropoietin monoclonal antibody, VL SEQ ID NO:6, VH SEQ ID NO:14, hybridoma DSM ACC 3370 (antibody, listed as Homo sapiens, V domains shown)
VH: EVKLQESGGGLVQPGGSLKLSCAASGFTFSTYTMSWVRQTPEKRLEWVAYISNGGDRTYYPDTVKGRFTISRDDAKNTLFLQMSSLKSEDTAMYYCARHNITTVPFTMDYWGQGTSVTVSS
VL: DIVLTQSPASLAVSLGQRATISCRASESVDYYGTGLMQWYQQRPGQPPKLLIYGASNVGSGVPARFSGSGSGTDFSLNIHPVEGDDIAMYFCQQTRKVPSTFGGGTKLEIK
modifications: VH amino acid sequence; VL amino acid sequence
For B1, the “cells initially seeded dead” value (primary GSCs) was “about 73%”, the “cells initially plated dead” value (K562) was 62% and the “blood count (hematological parameters)” value [1] was “no significant variations in all hematological parameters analyzed”. The “serum biochemistry (urea, creatinine, albumine, AST, ALT)” value [2] was “no significant variations”, the “cells initially plated dead” value (HOC84) was 68% and the “cells initially plated dead” value (SHSY-5Y) was 62%. For the same molecule, the “cells initially seeded dead” value (primary GECs) was roughly 70%, the “cells initially plated dead” value (MCF-7) was 71% and the “cells initially plated dead” value (PC-3) was 71%. The “cells initially plated dead” value (LNCAP) was 74%, the “decrease of total length of formed tubes” value (S-ECs) was 65% and the “formation of tubular-like structures” value (S-ECs) was “able to block the formation of tubular-like structures”. For the same molecule, the percent survival (U373 cells) was 30%, the “cells initially seeded dead” value [3] was roughly 66% and the “cells initially plated dead” value (DLD1) was 73%.
